Experimental data from JP2008232916A.

How the values were obtained:
[1] = target: T1, 配列番号2のアルファヘリカルペプチド (second helix peptide), displayed on 15 nm gold particles; test: gold nanoparticle aggregation: 500 nM free SEQ 1 added to mixed SEQ 2 and SEQ 3 particles; the read-out belongs to the three-peptide complex
T1 sequence (peptide): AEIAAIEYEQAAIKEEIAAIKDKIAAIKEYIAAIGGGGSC

[2] = target: 配列番号3のアルファヘリカルペプチド (third helix peptide), displayed on 15 nm gold particles; test: as above
[3] = target: T1, 配列番号2のアルファヘリカルペプチド (second helix peptide), displayed on 15 nm gold particles; test: gold nanoparticle aggregation: 100 µl E. coli lysate supernatant added to 1 ml mixed SEQ 2 and SEQ 3 particles; the read-out belongs to the three-peptide complex
[4] = target: 配列番号3のアルファヘリカルペプチド (third helix peptide), displayed on 15 nm gold particles; test: as above
[5] = target: T2, 配列番号16のアルファヘリカルペプチド (peptide containing the second helix peptide of the heterodimer), displayed on 15 nm gold particles; test: gold nanoparticle aggregation: 500 nM free SEQ 15 added to SEQ 16 particles, absorption spectrum
T2 sequence (peptide): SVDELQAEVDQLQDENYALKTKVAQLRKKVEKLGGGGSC

AEIAAIKYKQAAIKNEIAAIKQEIAAIEQMIAAI [配列番号1で示されるアルファヘリカルペプチド (first helix peptide of the heterotrimeric alpha-helical coiled coil)] gave an absorption maximum of the gold colloid after addition (525 nm before) [1] of 555 nm and an absorption maximum of the gold colloid after addition (525 nm before) [2] of 555 nm.

B1: アルカリフォスファターゼ(配列番号5)と配列番号1のアルファヘリックスとの融合ペプチド(配列番号8) (enzyme)
chain: RTPEMPVLENRAAQGDITAPGGARRLTGDQTAALRDSLSDKPAKNIILLIGDGMGDSEITAARNYAEGAGGFFKGIDALPLTGQYTHYALNKKTGKPDYVTDSAASATAWSTGVKTYNGALGVDIHEKDHPTILEMAKASGLATGNVSTAELQDATPAALVAHVTSRKCYGPSATSEKCPGNALEKGGKGSITEQLLNARADVTLGGGAKTFAETATAGEWQGKTLREQAQARGYQLVNDAASLNAVTEANQQKPLLGLFADGNMPVRWLGPKATYHGNIDKPAVTCTPNPQRNDSVPTLAQMTDKAIELLSKNEKGFFLQVEGASIDKQDHAANPCGQIGETVDLDEAVQRALEFAKKDGNTLVIVTADHAHASQIVAPDTKAPGLTQALNTKDGAVMVMSYGNSEEDSQEHTGSQLRIAAYGPHAANVVGLTDQTDLFYTMKAALGLKGGGSGGGSGGGSLVPRGSAEIAAIKYKQAAIKNEIAAIKQEIAAIEQMIAAI
B1 showed an absorption maximum of the gold colloid after addition [3] of 555 nm and an absorption maximum of the gold colloid after addition [4] of 555 nm.

B2: 配列番号15で示されるペプチド (first helix peptide of a heterodimer, SEQ ID NO 13, fused in tandem to both ends of the linker SEQ ID NO 14) (peptide)
peptide: TVAQLEEKVKTLRAQNYELKSRVQRLREQVAQLAGGGGSGGGGSGGGGSTVAQLEEKVKTLRAQNYELKSRVQRLREQVAQLA
For B2, the absorption maximum of the gold colloid after addition (about 525 nm before) [5] was 550 nm.
